Molecular target: T1, CasX 119 (in cells) (Planctomycetes)
T1 chain: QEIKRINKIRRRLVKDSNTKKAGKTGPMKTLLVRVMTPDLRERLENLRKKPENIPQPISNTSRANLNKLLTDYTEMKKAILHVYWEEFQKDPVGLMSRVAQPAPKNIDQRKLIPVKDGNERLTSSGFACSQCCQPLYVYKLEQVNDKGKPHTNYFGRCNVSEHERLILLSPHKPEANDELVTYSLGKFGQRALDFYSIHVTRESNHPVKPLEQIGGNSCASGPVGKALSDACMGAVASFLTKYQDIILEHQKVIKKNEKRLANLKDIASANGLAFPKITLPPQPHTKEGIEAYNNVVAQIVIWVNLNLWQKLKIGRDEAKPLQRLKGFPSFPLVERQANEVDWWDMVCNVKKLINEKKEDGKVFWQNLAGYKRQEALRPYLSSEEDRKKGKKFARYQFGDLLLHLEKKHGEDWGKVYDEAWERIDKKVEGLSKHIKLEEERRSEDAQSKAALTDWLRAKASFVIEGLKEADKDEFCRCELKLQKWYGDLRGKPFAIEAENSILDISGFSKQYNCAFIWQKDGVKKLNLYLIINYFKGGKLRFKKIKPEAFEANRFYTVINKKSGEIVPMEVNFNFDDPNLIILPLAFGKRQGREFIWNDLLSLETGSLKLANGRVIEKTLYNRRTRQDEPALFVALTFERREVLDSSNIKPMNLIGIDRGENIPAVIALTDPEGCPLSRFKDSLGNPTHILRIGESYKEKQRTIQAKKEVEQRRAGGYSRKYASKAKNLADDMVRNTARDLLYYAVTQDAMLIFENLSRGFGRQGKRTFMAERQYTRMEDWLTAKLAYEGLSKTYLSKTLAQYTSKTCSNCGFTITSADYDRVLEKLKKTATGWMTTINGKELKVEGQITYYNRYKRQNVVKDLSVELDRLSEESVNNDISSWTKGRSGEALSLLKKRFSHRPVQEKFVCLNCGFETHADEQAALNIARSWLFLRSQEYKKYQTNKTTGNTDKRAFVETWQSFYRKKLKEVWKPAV
Assay: cell_activity; TTC PAM; SOD1-GFP reporter, GFP disruption
Settings: tags: NLS
Source text: A SOD1-GFP reporter line was constructed by knocking in GFP at the endogenous human SOD1 locus, shown schematically in FIG. 19. A reporter (e.g., GFP reporter) coupled to a gRNA targeting sequence, complementary to the gRNA spacer, is integrated into a reporter cell line. Cells are transformed or transfected with a CasX protein and/or sgRNA variant, with the spacer motif of the sgRNA complementary to and targeting the gRNA target sequence of the reporter. The ability of the CasX:sgRNA ribonucleoprotein complex to cleave the target nucleic acid sequence is assayed by FACS. Cells that lose reporter expression indicate occurrence of CasX:sgRNA ribonucleoprotein complex-mediated cleavage and indel formation. The reporting system is based on reduced GFP fluorescence upon successful modifying (editing) of the SOD1 locus, detected by flow cytometry as shown in FIG. 20.
CasX 2 (SEQ ID NO:2) and guide 2 (SEQ ID NO:5) (labeled here as StX) and CasX 119 molecule and rRNA guide 64 (119.64) (labeled here as EvoXI) with SOD1 targeting spacers (2, with an encoding sequence of […] (SEQ ID NO: 310), and spacer 4, with an encoding sequence of […] (SEQ ID NO: 366)), were lipofected into SOD1-GFP reporter cells, selected for successful lipofection using puromycin, and later assayed for GFP disruption via FACS.

B1: sgRNA 64 SOD1 spacer 2 ; SOD1 exon 2 site (spacer 2) (ssRNA ; dsDNA)
RNA: GUACUGGCGCCUUUAUCUCAUUACUUUGAGAGCCAUCACCAGCGACUAUGUCGUAUGGGUAAAGCGCUUACGGACUUCGGUCCGUAAGAAGCAUCAAAGAUGUUCAUGAGUUUGGAGAU
DNA 1: ATGTTCATGAGTTTGGAGAT
DNA 2: ATCTCCAAACTCATGAACAT
  binding signal: 35 fold vs CasX2 guide 2

Reference: patent US20220348925, “COMPOSITIONS AND METHODS FOR THE TARGETING OF SOD1” (Scribe Therapeutics Inc., published 2022)
